Source: patent publication US20170355774A1 (Regeneron, published 2017)

Columns and labels:
[1] = molecular target: T1, hGITR.mmh (human); assay: SPR 37C, mAb capture
T1 construct: soluble monomeric construct; also called human (h) GITR.mmh; monomeric human GITR
T1 chain: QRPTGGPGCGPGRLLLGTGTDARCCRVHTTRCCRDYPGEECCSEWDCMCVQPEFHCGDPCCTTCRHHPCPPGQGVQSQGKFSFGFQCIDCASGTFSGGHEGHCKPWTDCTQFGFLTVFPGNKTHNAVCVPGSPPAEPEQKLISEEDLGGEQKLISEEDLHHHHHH

[2] = molecular target: T2, hGITR.mFc (human); assay: SPR 37C, mAb capture
T2 construct: soluble dimeric construct with mouse Fc; also called dimeric human GITR
T2 chain: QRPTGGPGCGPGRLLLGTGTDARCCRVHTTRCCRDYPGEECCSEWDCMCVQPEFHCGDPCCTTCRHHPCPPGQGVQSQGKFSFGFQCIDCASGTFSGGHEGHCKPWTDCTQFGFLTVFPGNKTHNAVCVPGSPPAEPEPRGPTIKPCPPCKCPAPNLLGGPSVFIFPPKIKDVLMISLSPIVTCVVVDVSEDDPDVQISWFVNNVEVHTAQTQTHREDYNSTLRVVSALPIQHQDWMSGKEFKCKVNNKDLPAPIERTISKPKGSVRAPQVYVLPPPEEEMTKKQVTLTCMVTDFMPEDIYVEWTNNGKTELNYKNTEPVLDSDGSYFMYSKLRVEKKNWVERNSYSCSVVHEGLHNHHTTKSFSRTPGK

[3] = molecular target: T3, mfGITR.mmh (Macaca fasicularis); assay: SPR 37C, mAb capture
T3 construct: soluble monomeric construct; also called Macaca fasicularis (mf) GITR.mmh; cynomolgus GITR protein
T3 chain: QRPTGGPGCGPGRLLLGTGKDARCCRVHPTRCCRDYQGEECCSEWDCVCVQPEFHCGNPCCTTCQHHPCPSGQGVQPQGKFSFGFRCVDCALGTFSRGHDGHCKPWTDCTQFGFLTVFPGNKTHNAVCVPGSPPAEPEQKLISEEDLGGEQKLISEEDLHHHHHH

[4] = molecular target: T4, human GITR (amino acids M1-V241, NCBI Accession #NP_004186.1) expressed on cells (human, UniProt Q9Y5U5 26-241); assay: cell-based or functional assay
T4 sequence: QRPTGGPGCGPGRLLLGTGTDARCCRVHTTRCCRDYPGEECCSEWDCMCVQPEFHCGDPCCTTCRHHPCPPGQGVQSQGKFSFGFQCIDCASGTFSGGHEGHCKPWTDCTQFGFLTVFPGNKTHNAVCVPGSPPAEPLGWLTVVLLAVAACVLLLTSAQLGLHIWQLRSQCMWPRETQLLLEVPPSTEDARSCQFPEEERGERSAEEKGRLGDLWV

[5] = molecular target: T4, human GITR (amino acids M1-V241, NCBI …); assay: cell-based or functional assay; remark: listed apart in the source
[6] = molecular target: T4, human GITR (amino acids M1-V241, NCBI …); assay: cell-based or functional assay; remark: listed apart in the source
[7] = molecular target: T4, human GITR (amino acids M1-V241, NCBI …); assay: cell-based or functional assay; remark: listed apart in the source
[8] = molecular target: T4, human GITR (amino acids M1-V241, NCBI …); assay: cell-based or functional assay; remark: listed apart in the source
[9] = molecular target: T4, human GITR (amino acids M1-V241, NCBI …); assay: cell-based or functional assay; remark: listed apart in the source
[10] = molecular target: T4, human GITR (amino acids M1-V241, NCBI …); assay: cell-based or functional assay; remark: listed apart in the source
[11] = molecular target: T4, human GITR (amino acids M1-V241, NCBI …); assay: ECL cell binding, hGITR/HEK293-D9
In short: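 Cells blocked with 2% BSA, then antibody dilutions from 1.7 pM to 100 nM added 1 h at RT. Bound antibody detected with SULFO-TAG anti-human kappa antibody, electrochemiluminescence read, RLU fitted by four-parameter logistic; signal at 100 nM on hGITR cells versus parental cells also recorded.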

B1: H4H14536P2 (antibody, human IgG4, V domains shown)
VH: QVQLQESGPGLVKPSETLSLTCIVSGGSISGYFWNWIRQPPGKGLEWIGYIYYSGTTIYNPSLKSRFTISLDTSKNQFSLKLTSVTAADTAVYYCARESYNPSPRYFDHWGQGTLVTVSS
VL: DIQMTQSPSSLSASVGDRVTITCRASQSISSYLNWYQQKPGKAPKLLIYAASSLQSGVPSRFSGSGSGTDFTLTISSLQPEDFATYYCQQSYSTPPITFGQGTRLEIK
notes: human IgG4 (H4H)
B1 showed a Kd [1] of 23 nM, a koff [1] of 0.00976 s⁻¹ and a kon [1] of 424000 M⁻¹ s⁻¹. The t½ [1] was 1.2 min, the Kd [2] was 0.173 nM and the koff [2] was 0.000219 s⁻¹. For the same binder, the kon [2] was 1.26e+06 M⁻¹ s⁻¹, the t½ [2] was 52.7 min and the Kd [3] was 142 nM. It also gave a koff [3] of 0.0147 s⁻¹, a kon [3] of 104000 M⁻¹ s⁻¹ and a t½ [3] of 0.8 min. For the same binder, the “% Activation, NF-kB-Luc, non-anchored” value [4] was 20%, the “% Blocking, NF-kB-Luc, non-anchored” value [4] was 90% and the “EC50, hGITR activation, NF-kB-Luc, non-anchored” value [4] was 1.1 nM. For the same binder, the “IC50, blocking of hGITRL stimulation, NF-kB-Luc, non-anchored” value [4] was 2 nM, the “EC50, hGITR activation, NF-kB-Luc, FcgR anchored” value [5] was 0.01 nM and the “Fold Activation over basal signal, NF-kB-Luc, FcgR anchored” value [5] was 5 fold. The “IC50, blocking of hGITRL stimulation, NF-kB-Luc, FcgR anchored” value [5] was 0.2 nM, the “fold activation, T-cell proliferation, plate-bound Ab 10.6 nM, donor 1” value [6] was 3 fold and the “fold activation, T-cell proliferation, plate-bound Ab 10.6 nM, donor 2” value [6] was 24 fold. The “fold activation, T-cell proliferation, plate-bound Ab 10.6 nM, donor 3” value [6] was 24 fold, the “fold activation, T-cell proliferation, plate-bound Ab 10.6 nM, donor 4” value [6] was 25 fold and the “fold activation, T-cell proliferation, plate-bound Ab 10.6 nM, donor 5” value [6] was 24 fold. The “fold activation, T-cell proliferation, plate-bound Ab 10.6 nM, donor 6” value [6] was 47 fold, the “fold activation, T-cell proliferation, plate-bound Ab 10.6 nM, donor 7” value [6] was 26 fold and the “fold activation, T-cell proliferation, plate-bound Ab 10.6 nM, donor 8” value [6] was 16 fold. The “fold activation, T-cell proliferation, plate-bound Ab 10.6 nM, mean” value [6] was 23 fold, the “fold activation, T-cell proliferation, 33 nM, FcgR anchored, donor 1” value [7] was 1.3 fold and the “fold activation, T-cell proliferation, 33 nM, FcgR anchored, donor 2” value [7] was 6.3 fold. For the same binder, the “fold activation, T-cell proliferation, 33 nM, FcgR anchored, donor 3” value [7] was 1.5 fold, the “fold activation, T-cell proliferation, 33 nM, FcgR anchored, donor 4” value [7] was 2.7 fold and the “fold activation, T-cell proliferation, 33 nM, FcgR anchored, donor 5” value [7] was 15.7 fold. For the same binder, the “fold activation, T-cell proliferation, 33 nM, FcgR anchored, mean” value [7] was 5.5 fold, the “EC50, T-cell proliferation, FcgR anchored, donor 1” value [8] was 1.2 nM and the “EC50, T-cell proliferation, FcgR anchored, donor 2” value [8] was 0.5 nM. For the same binder, the “EC50, T-cell proliferation, FcgR anchored, donor 3” value [8] was 1.3 nM, the “EC50, T-cell proliferation, FcgR anchored, donor 4” value [8] was 11.2 nM and the “EC50, T-cell proliferation, FcgR anchored, donor 5” value [8] was 1.6 nM. For the same binder, the “EC50, T-cell proliferation, FcgR anchored, mean” value [8] was 3.2 nM, the “fold activation, T-cell proliferation, 22 nM, non-anchored, donor 1” value [9] was 6.2 fold and the “fold activation, T-cell proliferation, 22 nM, non-anchored, donor 2” value [9] was 4.2 fold. For the same binder, the “fold activation, T-cell proliferation, 22 nM, non-anchored, donor 3” value [9] was 10.1 fold, the “fold activation, T-cell proliferation, 22 nM, non-anchored, donor 4” value [9] was 23.4 fold and the “fold activation, T-cell proliferation, 22 nM, non-anchored, mean” value [9] was 11 fold. For the same binder, the “EC50, T-cell proliferation, non-anchored, average” value [10] was 8.3 nM, the “EC50, T-cell proliferation, non-anchored, donor 1” value [10] was 12.2 nM and the “EC50, T-cell proliferation, non-anchored, donor 2” value [10] was 6.4 nM. The “EC50, T-cell proliferation, non-anchored, donor 3” value [10] was 9 nM, the “EC50, T-cell proliferation, non-anchored, donor 4” value [10] was 5.7 nM and the “Average Signal (RLU) at 100 nM” value [11] was 8960 RLU. For the same binder, the EC50 [11] was 0.36 nM.
